According to patent publication US20210095018A1 (BIOLEGEND, published 2021):

Molecular target: T1, human Tetraspanin 33 (TSPAN33) (human, UniProt Q86UF1 1-283)
T1 sequence: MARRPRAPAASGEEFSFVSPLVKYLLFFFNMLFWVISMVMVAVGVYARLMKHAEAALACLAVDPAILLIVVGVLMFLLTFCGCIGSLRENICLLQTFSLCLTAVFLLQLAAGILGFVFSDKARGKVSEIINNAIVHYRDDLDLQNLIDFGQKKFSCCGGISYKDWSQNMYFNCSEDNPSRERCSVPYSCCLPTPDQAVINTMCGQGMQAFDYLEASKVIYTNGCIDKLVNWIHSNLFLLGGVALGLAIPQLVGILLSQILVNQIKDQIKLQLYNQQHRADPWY
Experiment: flow cytometry on human PBMCs activated with CD40L and IL-4; detection with anti-mouse IgG PE
Method: Human peripheral blood mononuclear cells (PBMCs) were isolated in aseptic conditions through a gradient of Ficoll-Paque PLUS (GE Healthcare) according manufacturer instructions. The PBMCs were counted and adjusted in complete RPMI-1640 (10% fetal bovine serum, […] Penicillin, and 1 mg/ml Streptomycin) to a cell density of 1×10⁶ cells/mL. Cells were activated by adding CD40L (TNFSF5; 1 μg/mL) and recombinant human IL-4 (100 U/mL) to the culture. The cells were incubated overnight at 37° C. with 5% CO₂.
The next day the cells were washed with Biolegend's Cell Staining Buffer, and 1×10⁶ cells were stained for 15 minutes in the dark with anti-human CD20-APC and purified anti-human TSPAN33 or purified mouse IgG2b, k isotype control, in a volume of 100 μL. Cells were washed twice with 3 mL of Cell Staining Buffer and then stained for 15 minutes in the dark with anti-mouse IgG PE, in a volume of 100 μL. Then the cells were washed twice with 3 mL of Cell Staining Buffer and analyzed on a flow cytometer. 7-AAD Viability Staining Solution was used to exclude dead cells from analysis.

- binding result: binds
B1: AB1, mouse anti-TSPAN33 monoclonal antibody (antibody, V domains shown)
VH: EVKLVESGGGLVQPGGSLSLSCAASGFTFTDYYMTWVRQPPGKALEWLVFIRNKANGYTTEYSASVKGRFTISRDNSQSILYLQMNALRAEDSATYYCARYLQTGNFDYWGQGTTLTVSS
VL: EIQMIQTTSSLTASLGDRVTISCRASQDISNFLNWYQQKPDGTIKLLIYFTSRLHSGVPSRFSGSGSGTDYSLTISNLEQEDIATYFCQQGYTVPPTFGGGTKLEIK
notes: Murine monoclonal antibody from a hybridoma; also called AB (clone) Number 1
